Measured values reported in publication PMC12145424, “Structural insights into tRNA recognition of the human FTSJ1-THADA complex” (Communications Biology, 2025).

Biological target: T1, Human THADA (FLAG- and streptavidin-binding-sequence-tagged, co-expressed with FTSJ1) (human, UniProt Q6YHU6 1-1953)
T1 construct: THADA, human; gene PCR-amplified and cloned into a modified pcDNA3.4 vector; no TEV cleavage step is described; also called Trm732 (yeast name); not shown: FLAG, N-terminal, kept
Assay: SEC; FTSJ1 and THADA co-expressed in HEK293F, purified on anti-FLAG beads, then HiLoad 16/600 Superdex 200pg in 20 mM Tris-HCl pH 7.5, 150 mM NaCl, 2 mM DTT; fractions analysed by SDS-PAGE
Conditions: both partners purified

T1 sequence (Q6YHU6 whole entry): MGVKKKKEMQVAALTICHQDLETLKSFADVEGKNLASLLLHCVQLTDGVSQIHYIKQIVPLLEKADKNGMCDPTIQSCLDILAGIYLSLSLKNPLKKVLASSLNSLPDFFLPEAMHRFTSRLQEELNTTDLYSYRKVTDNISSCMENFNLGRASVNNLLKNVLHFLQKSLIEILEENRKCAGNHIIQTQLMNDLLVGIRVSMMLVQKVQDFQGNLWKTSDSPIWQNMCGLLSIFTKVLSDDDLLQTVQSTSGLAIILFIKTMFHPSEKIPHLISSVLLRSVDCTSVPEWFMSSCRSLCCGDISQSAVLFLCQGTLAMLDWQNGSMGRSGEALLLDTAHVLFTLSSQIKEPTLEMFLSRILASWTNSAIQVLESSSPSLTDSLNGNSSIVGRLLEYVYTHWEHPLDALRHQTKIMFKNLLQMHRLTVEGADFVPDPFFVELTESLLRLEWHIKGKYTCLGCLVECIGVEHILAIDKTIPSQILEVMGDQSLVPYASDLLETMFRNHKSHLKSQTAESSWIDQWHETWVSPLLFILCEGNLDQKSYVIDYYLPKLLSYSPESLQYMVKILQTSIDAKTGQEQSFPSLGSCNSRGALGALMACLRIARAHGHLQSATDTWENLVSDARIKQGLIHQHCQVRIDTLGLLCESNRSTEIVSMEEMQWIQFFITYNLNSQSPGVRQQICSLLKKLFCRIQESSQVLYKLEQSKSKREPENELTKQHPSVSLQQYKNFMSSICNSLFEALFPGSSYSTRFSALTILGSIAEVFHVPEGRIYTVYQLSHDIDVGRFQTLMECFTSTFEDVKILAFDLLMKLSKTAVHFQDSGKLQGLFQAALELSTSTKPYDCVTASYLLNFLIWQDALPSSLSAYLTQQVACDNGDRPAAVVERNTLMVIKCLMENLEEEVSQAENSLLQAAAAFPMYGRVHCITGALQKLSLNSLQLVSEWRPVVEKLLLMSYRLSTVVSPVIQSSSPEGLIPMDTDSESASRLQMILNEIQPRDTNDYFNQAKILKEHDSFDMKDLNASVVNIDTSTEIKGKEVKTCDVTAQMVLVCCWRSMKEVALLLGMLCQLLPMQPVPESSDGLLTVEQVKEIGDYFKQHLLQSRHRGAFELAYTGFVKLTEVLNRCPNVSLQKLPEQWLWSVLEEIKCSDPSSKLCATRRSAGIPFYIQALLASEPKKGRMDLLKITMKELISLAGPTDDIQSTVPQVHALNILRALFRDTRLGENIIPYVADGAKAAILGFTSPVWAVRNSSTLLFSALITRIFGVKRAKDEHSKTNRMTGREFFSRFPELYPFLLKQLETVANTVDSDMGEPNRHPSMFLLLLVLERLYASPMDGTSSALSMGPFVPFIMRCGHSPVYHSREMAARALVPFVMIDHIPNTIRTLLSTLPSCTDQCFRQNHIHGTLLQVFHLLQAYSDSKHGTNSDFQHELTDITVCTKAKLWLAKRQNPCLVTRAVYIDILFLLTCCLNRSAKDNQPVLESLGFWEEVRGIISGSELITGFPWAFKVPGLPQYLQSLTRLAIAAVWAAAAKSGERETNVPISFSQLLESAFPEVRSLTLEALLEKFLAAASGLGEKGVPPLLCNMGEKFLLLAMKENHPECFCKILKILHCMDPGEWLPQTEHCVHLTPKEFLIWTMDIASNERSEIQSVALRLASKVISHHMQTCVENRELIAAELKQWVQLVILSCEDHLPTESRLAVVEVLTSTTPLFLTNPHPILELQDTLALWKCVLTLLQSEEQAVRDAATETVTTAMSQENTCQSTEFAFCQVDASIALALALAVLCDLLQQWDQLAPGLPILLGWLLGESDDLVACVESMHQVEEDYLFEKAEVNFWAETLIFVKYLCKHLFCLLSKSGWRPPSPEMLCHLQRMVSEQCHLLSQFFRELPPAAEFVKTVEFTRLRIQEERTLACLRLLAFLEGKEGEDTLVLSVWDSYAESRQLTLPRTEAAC

binding result: binds
B1: Human FTSJ1 (FLAG-tagged, co-expressed with THADA) (enzyme)
chain: MGRTSKDKRDVYYRLAKENGWRARSAFKLLQLDKEFQLFQGVTRAVDLCAAPGSWSQVLSQKIGGQGSGHVVAVDLQAMAPLPGVVQIQGDITQLSTAKEIIQHFKGCPADLVVCDGAPDVTGLHDVDEYMQAQLLLAALNIATHVLKPGGCFVAKIFRGRDVTLLYSQLQVFFSSVLCAKPRSSRNSSIEAFAVCQGYDPPEGFIPDLSKPLLDHSYDPDFNQLDGPTRIIVPFVTCGDLSSYDSDRSYPLDLEGGSEYKYTPPTQPPISPPYQEACTLKRKGQLAKEIRPQDCPISRVDTFPQPLAAPQCHTLLAPEMEDNEMSCSP
notes: FTSJ1, human; gene PCR-amplified and cloned into a modified pcDNA3.4 vector; no TEV cleavage step is described in the purification; also called Trm7 (yeast name); not shown: FLAG, N-terminal, kept
